Results from US20240043568A1 (KEYMED BIOSCIENCES, published 2024).
Where a chain is given by its changes, count along the chain named. Read-outs that look alike come from different tables or passages of the source.

T1: cynomolgus monkey CD3εγ-Fc heterodimer (cynomolgus monkey)
T1 construct: also called monkey CD3 εγ protein
T1 chain 1: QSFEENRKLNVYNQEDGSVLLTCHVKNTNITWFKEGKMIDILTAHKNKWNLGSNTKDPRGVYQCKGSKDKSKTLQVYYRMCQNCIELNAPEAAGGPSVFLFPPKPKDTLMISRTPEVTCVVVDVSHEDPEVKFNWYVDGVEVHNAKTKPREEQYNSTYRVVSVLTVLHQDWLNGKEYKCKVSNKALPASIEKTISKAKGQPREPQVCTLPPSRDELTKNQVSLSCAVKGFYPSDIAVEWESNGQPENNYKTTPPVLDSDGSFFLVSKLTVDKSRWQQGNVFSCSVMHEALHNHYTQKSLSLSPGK
T1 chain 2: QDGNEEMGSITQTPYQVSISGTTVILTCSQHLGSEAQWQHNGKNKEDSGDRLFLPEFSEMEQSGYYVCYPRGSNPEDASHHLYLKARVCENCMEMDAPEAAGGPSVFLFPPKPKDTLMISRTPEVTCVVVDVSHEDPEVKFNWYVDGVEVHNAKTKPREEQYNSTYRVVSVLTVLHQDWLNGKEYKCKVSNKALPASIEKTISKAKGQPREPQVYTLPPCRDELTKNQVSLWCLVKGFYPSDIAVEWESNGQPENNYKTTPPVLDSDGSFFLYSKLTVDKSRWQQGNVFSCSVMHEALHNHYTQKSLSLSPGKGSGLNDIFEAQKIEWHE

T2: human CD3εγ-Fc heterodimer (human)
T2 construct: also called human CD3 εγ protein; recombinant CD3 εγ protein
T2 chain 1: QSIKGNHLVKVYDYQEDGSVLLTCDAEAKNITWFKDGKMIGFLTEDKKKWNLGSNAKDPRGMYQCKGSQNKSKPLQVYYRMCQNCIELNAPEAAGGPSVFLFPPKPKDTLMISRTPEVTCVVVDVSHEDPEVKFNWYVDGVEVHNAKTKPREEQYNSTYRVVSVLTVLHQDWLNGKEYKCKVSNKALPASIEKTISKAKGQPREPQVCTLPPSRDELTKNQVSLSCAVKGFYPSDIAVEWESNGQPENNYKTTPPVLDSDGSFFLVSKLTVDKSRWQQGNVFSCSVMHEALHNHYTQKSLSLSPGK
T2 chain 2: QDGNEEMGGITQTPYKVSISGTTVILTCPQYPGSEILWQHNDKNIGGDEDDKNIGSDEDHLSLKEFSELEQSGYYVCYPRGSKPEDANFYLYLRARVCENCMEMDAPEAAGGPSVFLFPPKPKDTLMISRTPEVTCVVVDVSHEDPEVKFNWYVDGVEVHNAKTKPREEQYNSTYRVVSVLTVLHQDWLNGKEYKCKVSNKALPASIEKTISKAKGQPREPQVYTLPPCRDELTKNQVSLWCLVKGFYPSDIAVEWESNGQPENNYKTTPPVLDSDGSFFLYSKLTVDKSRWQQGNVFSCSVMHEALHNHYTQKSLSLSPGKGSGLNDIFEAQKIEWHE

B1: aCD3-hVH9/VL2 (antibody, V domains shown)
VH: EVQLVESGGGLVQPGGSLRLSCAASGFTFNTYAMNWVRKAPGKGLEWVGRIRSKYNNYATYYADSVKDRFTISRDDSKNSLYLQMNSLKTEDTAVYYCVRHGNFGNSYVSWFAYWGQGTLVTVSS
VL: QAVVTQEPSLTVSPGGTVTLTCRSSTGAVTTSNYANWVQEKPGQAPRGLIGGTNKRAPWTPARFSGSLLGGKAALTLSGAQPEDEAEYYCALWYSNLWVFGGGTKLTVL
notes: Human IgG4, lambda
B2: aCD3-hVH9/VL5 (antibody, V domains shown)
VH: B1 VH
VL: B1 VL with L77I, S78T, P82A, A91V
notes: Human IgG4, lambda
B3: 49G8 (antibody, V domains shown)
VH: QVQLQQSGAELVRPGASVKLSCKALGYTFADYEIHWVKQTPVHGLEWIGAIHPGSGGTAYNQTFEGKATLTADKSSTTAYMELSSLTSEDSAVYYCTRYYSFAYWGQGTLVTVSA
VL: DVVMTQTPLSLPVSLGDQASISCRSSQSIVHSNGNTYLEWYLQKPGQSPKLLIYKVSNRFSGVPDRFSGSGSGTDFTLKISRVEAEDLGVYFCLQVTHVPLTFGAGTKLELK
notes: Chimeric human IgG1; also called 49G8 chimeric antibody; Mab 49G8

Experiments:
[1] = molecular target: T1, cynomolgus monkey CD3εγ-Fc heterodimer; assay: ELISA on coated monkey CD3εγ protein, A450 [panel Monkey CD3 εγ dimer]
Description: (§1) Human CD3 εγ protein and monkey CD3 εγ protein were coated separately overnight at 4° C. After blocking with 2% skim milk, different dilutions of CD3 antibody were added to each well and incubated for 1 hour. The secondary antibody HPR-labeled goat anti-human IgG Fc was added. After being developed by the TMB solution. The reaction was stopped with the concentrated sulfuric acid and the absorbance was read at 450 nm.

[2] = molecular target: T2, human CD3εγ-Fc heterodimer; assay: ELISA, coated human CD3εγ protein
Description: as §1, with “was” for “and monkey CD3 εγ protein were”, “coated” for “coated separately”, “antibodies was” for “antibody were”, “solution, the” for “solution. The”, “acid,” for “acid”, “nm (the results are shown in FIG. 12 and Table 8).” for “nm.”

human CD3 on T cells = molecular target: T3, human CD3 on T cells (human, UniProt P07766 23-207); assay: flow cytometry, Jurkat cells
T3 construct: whole, on cells; The target is the native CD3 complex on cells; The recombinant antigen used elsewhere is the εγ heterodimer; also called CD3 on Jurkat cells; CD3 on human peripheral blood CD4+ and CD8+ T cells
Description: Jurkat cells in the logarithmic growth phase were taken, blocked with 3% BSA for 30 min, and added to 96-well U-plate at 5×10⁴ cells per well. The supernatant was discarded after centrifugation. 50 μL of gradient diluted antibody was added (antibody concentration: from 30 ng/mL, 3-fold dilution for 5 gradients) per well, and incubated at 4° C. for 1 hour. […] After washing, 50 μL PBS was added per well to perform resuspending for FACS (iQue, intellicyt) assay (the results are seen in FIG. 13, and Table 10).

[3] = molecular target: T2, human CD3εγ-Fc heterodimer; assay: ELISA on coated human CD3εγ protein, A450 [panel Human CD3 εγ dimer]
Description: as §1

[4] = molecular target: T4, recombinant human GPC3 protein (human, UniProt P51654 25-563); assay: ELISA on coated recombinant human GPC3 protein, OD450 [panel Recombinant human GPC3 protein]
T4 construct: also called human GPC3 full-length protein; recombinant GPC3 protein

[5] = molecular target: T4, recombinant human GPC3 protein; assay: BLI (Octet), antibody on Protein A probe
Description: (§2) Using BLI technology (Octet), the antibody to be tested was captured on the Protein A probe. The binding capacity with human GPC3 protein (10 μg/ml as the initial concentration, 2-fold gradient, a total of 5 concentration points) was detected. The affinity constant KD was obtained according to the association and dissociation rates. The 49G8 humanized antibody binds to the recombinant GPC3 protein with high affinity. The affinity data is seen in Table 6.

[6] = molecular target: T4, recombinant human GPC3 protein; assay: BLI (Octet), antibody on Protein A probe; remark: listed apart in the source
Description: as §2, with “rates.” for “rates. The 49G8 humanized antibody binds to the recombinant GPC3 protein with high affinity. The affinity data is seen in Table 6.”

[7] = molecular target: T4, recombinant human GPC3 protein; assay: ELISA, coated antigen 1 µg/ml
Description: (§3) The high-affinity positive clone 49G8 was selected to detect binding activity to recombinant human, cynomolgus monkey, mouse GPC3 full-length proteins, and recombinant human GPC3 extracellular domain membrane-proximal proteins. 1 μg/ml of the above-mentioned protein was coated overnight at 4° C. After blocking, 49G8 chimeric antibody (initial concentration 200 nM, 3-fold gradient dilution, a total of 12 concentrations) was added and reacted for 1 hour at room temperature. The secondary antibody HPR-labeled goat anti-human IgG Fc was added. After being developed by the TMB solution, the reaction was stopped with concentrated sulfuric acid, and the absorbance was read at […]. The 49G8 antibody can bind to the full-length human and cynomolgus monkey GPC3 proteins and the membrane-proximal end of the extracellular region of human GPC3 with a slightly higher affinity than the control antibody and a weak affinity to mouse GPC3 protein (Table 3).

[8] = molecular target: T5, recombinant cynomolgus monkey GPC3 full-length protein (cynomolgus monkey, UniProt A0A2K5VK50 24-558); assay: ELISA, coated antigen 1 µg/ml
Description: as §3

[9] = molecular target: T6, recombinant GST-human GPC3 stem protein (human); assay: ELISA, coated antigen 1 µg/ml
T6 construct: also called recombinant human GPC3 extracellular domain membrane-proximal protein
Description: as §3

human GPC3 on cells = molecular target: T7, human GPC3 on cells (human, UniProt P51654 25-563); assay: flow cytometry, CHO-human GPC3 cells
T7 construct: whole, on cells; One molecule is used for both CHO-hGPC3 transfectants and GPC3+ HepG2 cells; The assay field names the cell; also called CHO-hGPC3 (clone 2B10); CHO-human GPC3
Description: The binding of the antibodies to human GPC3 stably-transfected cells was detected by FACS. CHO-human GPC3 stably-transfected cells prepared in Example 1 in the logarithmic growth phase were adjusted to 5×10⁵ cells/ml with 4% calf serum (Hyclone, SH30626.06). 100 μl/well of cell suspension was added to a 96-well U-plate, and centrifuged at 300 g for 5 min. The supernatant was discarded. 100 μL of gradient diluted antibodies (initial concentration 200 nM, 3-fold dilution, 12 gradients) was added to each well and incubated at 4° C. for 45 min. The secondary antibody Alexa Fluro647 labeled goat anti-human IgG Fc (1:300 dilution) was added at 50 μL/well, incubated on ice for 45 minutes, and detected by flow cytometry.

[10] = molecular target: T5, recombinant cynomolgus monkey GPC3 …; assay: ELISA on coated recombinant cynomolgus monkey GPC3 protein, OD450 [panel Recombinant cynomolgus monkey GPC3 protein]

T6 sequence (chain, as listed by the source limits assumed): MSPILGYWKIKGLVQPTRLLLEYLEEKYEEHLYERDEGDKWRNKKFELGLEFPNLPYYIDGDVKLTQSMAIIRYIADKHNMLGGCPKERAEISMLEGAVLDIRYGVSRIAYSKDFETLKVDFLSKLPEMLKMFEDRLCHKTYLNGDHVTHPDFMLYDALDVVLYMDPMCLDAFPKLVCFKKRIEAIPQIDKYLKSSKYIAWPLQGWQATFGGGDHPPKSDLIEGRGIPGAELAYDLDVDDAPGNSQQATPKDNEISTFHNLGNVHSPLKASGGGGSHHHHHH

Binder	EC50 (read off the curve) [1] [ng/mL]	EC50 [2] [pM]	EC50 (human CD3 on T cells) [pM]	EC50 (read off the curve) [3] [ng/mL]	EC50 (read off the curve) [4] [pM]	Kd [5] [pM]	koff [5] [s⁻¹]	kon [5] [M⁻¹ s⁻¹]	Kd [6] [pM]	koff [6] [s⁻¹]	kon [6] [M⁻¹ s⁻¹]	EC50 [7] [pM]	EC50 [8] [pM]	EC50 [9] [pM]	EC50 (human GPC3 on cells) [pM]	EC50 (read off the curve) [10] [pM]
B1	~0.04	440	25000	~0.04	–	–	–	–	–	–	–	–	–	–	–	–
B2	~0.05	420	20000	~0.05	–	–	–	–	–	–	–	–	–	–	–	–
B3	–	–	–	–	~30	1170	9.35e-05	79700	3320	0.000231	69400	72	120	74	1180	~30
